Measured values reported in paper PMC4748275, “SpyRing interrogation: analyzing how enzyme resilience can be achieved with phytase and distinct cyclization chemistries” (Scientific Reports, 2016).

Test system: O=C(Cc1cccs1)N[C@@H]1C(=O)N2C(C(=O)O)=C(/C=C/c3ccc([N+](=O)[O-])cc3[N+](=O)[O-])CS[C@H]12
Experiment: purified protein
Settings: 50 mM NaH2PO4 pH 7.0, 0.1% BSA, 30 °C, 10-100 μM nitrocefin

For “BLA (TEM-1 β-lactamase) (Escherichia coli)”, the Km was 120 ± 3 µM and the kcat was 1200 ± 30 s⁻¹.
